Assay results taken from the supplement of paper PMC9170038.

Tested on: MS2 coat protein
Experiment: apparent KD of MS2 coat protein; designed switch direction (-1 OFF switch, 1 ON switch): 1; higher = weaker reporter binding
In short: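 Transcription of designed RNA switches on Illumina chips was done by stalled E. coli RNA polymerase. SNAP-549-labelled MS2 coat protein was then titrated in doubling steps from 0.7 or 1.5 nM to 3 µM, with steps of 0.8–1.5 h at the lowest and 10–20 min at the highest concentration. The per-design median over clusters of curve-fitted normalised fluorescence is reported as apparent KD.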

[1] = input ligand: microRNA oligo, concentration not stated
[2] = Eterna round: R95, input ligand: FMN 200 uM
[3] = Eterna round: R95, input ligand: microRNA oligo, concentration not stated
[4] = Eterna round: R95, input ligand: none

| Sequence | apparent KD of MS2 coat protein (input ligand: FMN 200 uM) | apparent KD of MS2 coat protein [1] | apparent KD of MS2 coat protein (input ligand: none) | apparent KD of MS2 coat protein [2] | apparent KD of MS2 coat protein [3] | apparent KD of MS2 coat protein [4] |
| --- | --- | --- | --- | --- | --- | --- |
| GUGGCGGGUUGAGGAUAUUGGUUGCCUAUGUUUUACAUGAGGAUCACCCAUGUGGGUUGCGGUUUCGAGAAGGUAGGUUGCUGG [salish99_SSNG2_r04_047] (Eterna round: R96, puzzle: Same State NG 2) | 420 nM | 228 nM | 347 nM |  |  |  |
| GGUAGGUUACUACCAAACAUGAGGAUCACCCAUGUAAAUGGGAAGGAUAUGGUACCUAUUUGGUACCAGAAGGUCUAAUUAAUU [JL Fiskers NG3ss - 2 mod 1] (Eterna round: R96, puzzle: Same State NG 3) | 332 nM | 479 nM | 553 nM |  |  |  |
| GCUCGAUGAUAGGCCUACAUGAGGAUCACCCAUGUAAGUGGGCAGGAUAUCUACAUGCAGAAUGUAGAGAAGGGCCCGUCGAGC [SameState NG3 #55] (Eterna round: R96, puzzle: Same State NG 3) | 20.5 nM | 66 nM | 83.9 nM |  |  |  |
| GUAAUACAUGAGGAUCACCCAUGUCAAUGUAGUCGAGGAUAUGGGUAGCUAUGAGGCUUACUAGAAGGCGACGAGC [Same State 1 - Mod of Vinnie Teenbexe v.5] (Eterna round: R96, puzzle: Same State 1) | 46.5 nM | 208 nM | 249 nM |  |  |  |
| GCGAAGAGGUAAGGAUAUGCAUGGCGGAGACAUGAGGAUCACCCAUGUUGGAGACGAAAUCUAGGGUAGAAGGUACCAGGAAGC [AK SSNG2-V2-12] (Eterna round: R96, puzzle: Same State NG 2) | 61.9 nM | 52.6 nM | 72.1 nM |  |  |  |
| UUUAGAUCGCGAGGAUAUCGCGAGGAUCACCCGUGAGAAGGCGCAGAGCCGAGGAUCACCCGGCUGAUCCUGAGAAGGAGGUCU (Eterna round: R96, puzzle: Same State NG 1) | 45.1 nM | 87.7 nM | 129 nM |  |  |  |
| GCAGGACAUGAGGAUCACCCAUGUCUCAAAUAUUGAGGAUAUGGACACGGUAUAUCCGAACCAGAAGGCAACCUGC [SS1 Teenbexe 20] (Eterna round: R96, puzzle: Same State 1) | 38.9 nM | 31.5 nM | 43.7 nM |  |  |  |
| AAAAGAAACACAGGAUAUACCGCAAUUAACACGGUAGAAGGGUGGGACAUGAGGAUCACCCAUGUGACCUGAACACCAGGUCGC [Enrien] (Eterna round: R96, puzzle: Same State NG 1) | 369 nM | 17.9 nM | 105 nM |  |  |  |
| ACCGCGUUUCGCGCCUACAUGAGGAUCACCCAUGUUUGUAGGCAGGAUAUCGUCCGCUCUGCGGGCGAGAAGGGCUGUUGUGGU [salish99_SSNG3_R04_028] (Eterna round: R96, puzzle: Same State NG 3) | 49.3 nM | 42.9 nM | 60.8 nM |  |  |  |
| UGGCUCAGACGAGGAUAUAUGUGGUCACAUGAGGAUCACCCAUGUCUCGAGCUUCGGCUCGAGGCAUAGAAGGUGUCUGAGCCU [SSNG2/5-C3] (Eterna round: R96, puzzle: Same State NG 2) | 132 nM | 33.5 nM | 23.1 nM |  |  |  |
| GGAGCCGGCCUAGGAUAUUUCAUAAAAUUACAUGAGGAUCACCCAUGUAGGCCAGAAGGCCUUGGGAAGAAGGAGGUCGGCUCC [Loop Effect - U28,U29] (Eterna round: R96, puzzle: Same State NG 2) | 12.9 nM | 17.5 nM | 28.2 nM |  |  |  |
| CGGGUACAUGAGGAUCACCCAUGUGGGAGGGAUGCAGGAUAUGUGGGAAAAGGGUAUGUAACAGAAGGGCAAGGAG [JR_SS!_Sub014] (puzzle: Same State 1) |  |  |  | 30.8 nM | 31.8 nM | 45.1 nM |
| UAGUGCAUUAGAGGAUAUUCUUACGACACGAGUAAGACAUGAGGAUCACCCAUGUUGUGGCAUGGGAAGAAGGCUGAUGUGCUA [Omei SS(NG)2 Bv9] (Eterna round: R96, puzzle: Same State NG 2) |  | 45.3 nM |  |  |  |  |
| CUACUACAUGAGGAUCACCCAUGUUAUAGUGAUGCAGGAUAUGUGUGACCAGAAGAUGAAACAGAAGGGCAAAGAA [JR_SS!_Sub001] (puzzle: Same State 1) |  |  |  | 31.4 nM | 33.1 nM | 30.1 nM |
| UCUAUUGUGGUAGGAUAUCUAGGAUAUGGGAAGAGCUAAGCUUGGAAGUCACUUCACCCAGAAGGAGAGAAGGACCACACACUU [pwkr ssNG2 2FMN + F9.8] (Eterna round: R96, puzzle: Same State NG 2) | 564 nM | 121 nM | 225 nM |  |  |  |
| AGCUAUUACGCAGGAUAUAGGGACAUGAGGAUCACCCAUGUGUACAUGAGUAAAUGUGAUCACGUCUAGAAGGGUGUACUAACA [SameState NG2 #37] (Eterna round: R96, puzzle: Same State NG 2) | 684 nM | 326 nM | 321 nM |  |  |  |
